Assay results taken from paper PMC10397247.

Legend:
4H3632-bN = target: T1, 4H3632-bN; assay: two-hybrid library CCNG1;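 also: natural log of median RNA to DNA barcode read ratio; higher means stronger binding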
T1 chain: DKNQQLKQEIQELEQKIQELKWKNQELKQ

4H496-bN = target: T2, 4H496-bN; assay: two-hybrid library CCNG1;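 also: natural log of median RNA to DNA barcode read ratio; higher means stronger binding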
T2 chain: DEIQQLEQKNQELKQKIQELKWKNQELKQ

P1mSN = target: T3, P1mSN; assay: two-hybrid library CCNG1;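 also: natural log of median RNA to DNA barcode read ratio; higher means stronger binding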
T3 chain: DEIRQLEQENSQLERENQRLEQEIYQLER

O14 [1] = target: T4, O14; assay: two-hybrid library CCNG1;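 also: natural log of median RNA to DNA barcode read ratio; higher means stronger binding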
T4 chain: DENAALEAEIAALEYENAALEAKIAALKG

O15 [2] = target: T5, O15; assay: two-hybrid library CCNG1;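 also: natural log of median RNA to DNA barcode read ratio; higher means stronger binding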
T5 chain: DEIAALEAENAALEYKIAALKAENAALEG

O16 [3] = target: T6, O16; assay: two-hybrid library CCNG1;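 also: natural log of median RNA to DNA barcode read ratio; higher means stronger binding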
T6 chain: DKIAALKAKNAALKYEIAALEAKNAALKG

O2 [4] = target: T7, O2; assay: two-hybrid library CCNG1
T7 chain: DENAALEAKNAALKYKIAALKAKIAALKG

O3 [5] = target: T8, O3; assay: two-hybrid library CCNG1
T8 chain: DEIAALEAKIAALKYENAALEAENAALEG

O4 [6] = target: T9, O4; assay: two-hybrid library CCNG1
T9 chain: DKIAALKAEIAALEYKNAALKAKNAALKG

O5 [7] = target: T10, O5; assay: two-hybrid library CCNG1
T10 chain: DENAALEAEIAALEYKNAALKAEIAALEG

O6 [8] = target: T11, O6; assay: two-hybrid library CCNG1
T11 chain: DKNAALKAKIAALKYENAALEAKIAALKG

O7 [9] = target: T12, O7; assay: two-hybrid library CCNG1
T12 chain: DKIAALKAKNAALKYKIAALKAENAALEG

O8 [10] = target: T13, O8; assay: two-hybrid library CCNG1
T13 chain: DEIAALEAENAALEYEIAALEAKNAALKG

O9 [11] = target: T14, O9; assay: two-hybrid library CCNG1
T14 chain: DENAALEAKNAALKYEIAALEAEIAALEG

O14 [12] = target: T15, O14; assay: two-hybrid library CC0; conditions: mean of both orientations
T15 chain: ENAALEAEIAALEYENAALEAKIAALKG

O15 [13] = target: T16, O15; assay: two-hybrid library CC0; conditions: mean of both orientations
T16 chain: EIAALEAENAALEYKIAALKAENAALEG

O16 [14] = target: T17, O16; assay: two-hybrid library CC0; conditions: mean of both orientations
T17 chain: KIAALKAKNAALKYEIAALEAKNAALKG

O2 [15] = target: T18, O2; assay: two-hybrid library CC0; conditions: mean of both orientations
T18 chain: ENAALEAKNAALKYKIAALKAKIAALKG

O3 [16] = target: T19, O3; assay: two-hybrid library CC0; conditions: mean of both orientations
T19 chain: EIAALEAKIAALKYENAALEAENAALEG

O4 [17] = target: T20, O4; assay: two-hybrid library CC0; conditions: mean of both orientations
T20 chain: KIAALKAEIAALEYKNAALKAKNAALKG

O5 [18] = target: T21, O5; assay: two-hybrid library CC0; conditions: mean of both orientations
T21 chain: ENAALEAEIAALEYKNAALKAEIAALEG

O6 [19] = target: T22, O6; assay: two-hybrid library CC0; conditions: mean of both orientations
T22 chain: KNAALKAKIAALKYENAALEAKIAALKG

O7 [20] = target: T23, O7; assay: two-hybrid library CC0; conditions: mean of both orientations
T23 chain: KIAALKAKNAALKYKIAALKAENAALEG

O8 [21] = target: T24, O8; assay: two-hybrid library CC0; conditions: mean of both orientations
T24 chain: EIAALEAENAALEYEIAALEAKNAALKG

O9 [22] = target: T25, O9; assay: two-hybrid library CC0; conditions: mean of both orientations
T25 chain: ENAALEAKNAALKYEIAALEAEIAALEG

P8SH = target: T26, P8SH; assay: two-hybrid library CCNG1
T26 chain: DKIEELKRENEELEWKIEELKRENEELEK

4H235-bH = target: T27, 4H235-bH; assay: two-hybrid library CCNG1
T27 chain: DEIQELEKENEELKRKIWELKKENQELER

4H2444-bH = target: T28, 4H2444-bH; assay: two-hybrid library CCNG1
T28 chain: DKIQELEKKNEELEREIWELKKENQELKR

4H2518-bH = target: T29, 4H2518-bH; assay: two-hybrid library CCNG1
T29 chain: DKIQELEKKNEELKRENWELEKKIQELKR

4H2585-bH = target: T30, 4H2585-bH; assay: two-hybrid library CCNG1
T30 chain: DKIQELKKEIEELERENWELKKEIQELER

4H264-bH = target: T31, 4H264-bH; assay: two-hybrid library CCNG1
T31 chain: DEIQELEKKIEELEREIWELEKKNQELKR

4H2760-bH = target: T32, 4H2760-bH; assay: two-hybrid library CCNG1
T32 chain: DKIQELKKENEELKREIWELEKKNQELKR

4H2859-bH = target: T33, 4H2859-bH; assay: two-hybrid library CCNG1
T33 chain: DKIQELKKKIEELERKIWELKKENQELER

4H2931-bH = target: T34, 4H2931-bH; assay: two-hybrid library CCNG1
T34 chain: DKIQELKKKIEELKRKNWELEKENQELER

4H2944-bA = target: T35, 4H2944-bA; assay: two-hybrid library CCNG1
T35 chain: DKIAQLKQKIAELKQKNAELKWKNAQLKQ

4H3041-bH = target: T36, 4H3041-bH; assay: two-hybrid library CCNG1
T36 chain: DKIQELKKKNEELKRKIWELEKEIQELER

4H3297-bH = target: T37, 4H3297-bH; assay: two-hybrid library CCNG1
T37 chain: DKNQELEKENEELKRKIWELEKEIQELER

4H3364-bH = target: T38, 4H3364-bH; assay: two-hybrid library CCNG1
T38 chain: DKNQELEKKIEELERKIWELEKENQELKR

4H3381-bH = target: T39, 4H3381-bH; assay: two-hybrid library CCNG1
T39 chain: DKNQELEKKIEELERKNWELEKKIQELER

4H349-bH = target: T40, 4H349-bH; assay: two-hybrid library CCNG1
T40 chain: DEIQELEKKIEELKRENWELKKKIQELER

4H56-bH = target: T41, 4H56-bH; assay: two-hybrid library CCNG1
T41 chain: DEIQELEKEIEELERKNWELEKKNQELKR

4H730-bH = target: T42, 4H730-bH; assay: two-hybrid library CCNG1
T42 chain: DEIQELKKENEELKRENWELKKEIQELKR

4H796-bH = target: T43, 4H796-bH; assay: two-hybrid library CCNG1
T43 chain: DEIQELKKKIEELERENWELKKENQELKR

4H932-bH = target: T44, 4H932-bH; assay: two-hybrid library CCNG1
T44 chain: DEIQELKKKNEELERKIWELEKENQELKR

4H949-bH = target: T45, 4H949-bH; assay: two-hybrid library CCNG1
T45 chain: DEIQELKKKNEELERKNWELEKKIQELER

O13 = target: T46, O13; assay: two-hybrid library CCNG1
T46 chain: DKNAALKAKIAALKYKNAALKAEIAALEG

P3A = target: T47, P3A; assay: two-hybrid library CCNG1
T47 chain: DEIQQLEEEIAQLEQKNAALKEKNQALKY

P4A = target: T48, P4A; assay: two-hybrid library CCNG1
T48 chain: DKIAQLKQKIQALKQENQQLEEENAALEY

P5A = target: T49, P5A; assay: two-hybrid library CCNG1
T49 chain: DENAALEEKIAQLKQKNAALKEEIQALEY

P6A = target: T50, P6A; assay: two-hybrid library CCNG1
T50 chain: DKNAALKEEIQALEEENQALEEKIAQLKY

P7A = target: T51, P7A; assay: two-hybrid library CCNG1
T51 chain: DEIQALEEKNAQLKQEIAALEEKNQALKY

P8A = target: T52, P8A; assay: two-hybrid library CCNG1
T52 chain: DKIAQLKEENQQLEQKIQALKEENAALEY

P9A = target: T53, P9A; assay: two-hybrid library CCNG1
T53 chain: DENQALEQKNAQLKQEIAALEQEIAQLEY

4H342-bA = target: T54, 4H342-bA; assay: two-hybrid library CCNG1
T54 chain: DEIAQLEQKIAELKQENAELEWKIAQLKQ

4H48-bA = target: T55, 4H48-bA; assay: two-hybrid library CCNG1
T55 chain: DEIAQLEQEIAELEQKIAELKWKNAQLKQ

4H491-bA = target: T56, 4H491-bA; assay: two-hybrid library CCNG1
T56 chain: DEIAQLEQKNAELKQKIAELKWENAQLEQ

DKNQQLKQEIQELEQKIQELKWKNQELKQ [4H3632-bN] was tested, and the interaction score (4H3632-bN) was 1.05, the interaction score (4H496-bN) was -0.174 and the interaction score (P1mSN) was -0.649.

DENAALEAEIAALEYENAALEAKIAALKG showed an interaction score (O14 [1]) of -2.21, an interaction score (O15 [2]) of -1.64 and an interaction score (O16 [3]) of 0.545. It also gave an interaction score (O2 [4]) of -1.4, an interaction score (O3 [5]) of -1.94 and an interaction score (O4 [6]) of -1.11. The interaction score (O5 [7]) was 0.398, the interaction score (O6 [8]) was 0.213 and the interaction score (O7 [9]) was 0.14. For the same binder, the interaction score (O8 [10]) was -2.34 and the interaction score (O9 [11]) was -2.25.

For ENAALEAEIAALEYENAALEAKIAALKG, the interaction score (O14 [12]) was -2.52, the interaction score (O15 [13]) was -2.74 and the interaction score (O16 [14]) was 0.961. For the same binder, the interaction score (O2 [15]) was -2.38, the interaction score (O3 [16]) was -2.51 and the interaction score (O4 [17]) was -2.52. The interaction score (O5 [18]) was -0.24, the interaction score (O6 [19]) was 0.177 and the interaction score (O7 [20]) was -1.03. It also gave an interaction score (O8 [21]) of -2.58 and an interaction score (O9 [22]) of -2.64.

DKIEELKRENEELEWKIEELKRENEELEK [P8SH] showed an interaction score (P8SH) of -0.00526.

In the case of DEIQELEKENEELKRKIWELKKENQELER [4H235-bH], the interaction score (4H235-bH) is reported as 0.982, the interaction score (4H2444-bH) is reported as 0.0109 and the interaction score (4H2518-bH) is reported as -0.135. It also gave an interaction score (4H2585-bH) of -1.55, an interaction score (4H264-bH) of -0.718 and an interaction score (4H2760-bH) of 1.12. It also gave an interaction score (4H2859-bH) of 0.589, an interaction score (4H2931-bH) of -0.301 and an interaction score (4H2944-bA) of -0.835. It also gave an interaction score (4H3041-bH) of 0.0126, an interaction score (4H3297-bH) of 0.0762 and an interaction score (4H3364-bH) of -0.442. It also gave an interaction score (4H3381-bH) of 0, an interaction score (4H349-bH) of 0.108 and an interaction score (4H56-bH) of 0.0558. The interaction score (4H730-bH) was -0.176, the interaction score (4H796-bH) was -0.693 and the interaction score (4H932-bH) was -0.443. The interaction score (4H949-bH) was -0.845.

DKNAALKAKIAALKYKNAALKAEIAALEG [O13] gave an interaction score (O13) of -2.48, an interaction score (O14 [1]) of 1.68 and an interaction score (O15 [2]) of 1.46. For the same binder, the interaction score (O16 [3]) was -2.61, the interaction score (O2 [4]) was -2.42 and the interaction score (O3 [5]) was -2.26. It also gave an interaction score (O4 [6]) of -2.24, an interaction score (O5 [7]) of -1.38 and an interaction score (O6 [8]) of -1.32. It also gave an interaction score (O7 [9]) of -2.53, an interaction score (O8 [10]) of -1.26 and an interaction score (O9 [11]) of -2.39.

Work on DEIQQLEEEIAQLEQKNAALKEKNQALKY [P3A] yielded an interaction score (P3A) of -0.882, an interaction score (P4A) of 2.6 and an interaction score (P5A) of -0.901. It also gave an interaction score (P6A) of -0.905, an interaction score (P7A) of -0.23 and an interaction score (P8A) of -0.435. For the same binder, the interaction score (P9A) was 0.0927.

Binder DKIAQLKQKIAELKQKNAELKWKNAQLKQ [4H2944-bA] has an interaction score (4H2944-bA) of -0.797, an interaction score (4H342-bA) of 1.77 and an interaction score (4H48-bA) of -1.05. The interaction score (4H491-bA) was -0.569.
